Experimental data published in publication PMC9023267.

T1: Mtr4ΔF (fist-less) (Saccharomyces cerevisiae, UniProt P47047 1-666+=GGG+814-1073, internal_change)
T1 sequence: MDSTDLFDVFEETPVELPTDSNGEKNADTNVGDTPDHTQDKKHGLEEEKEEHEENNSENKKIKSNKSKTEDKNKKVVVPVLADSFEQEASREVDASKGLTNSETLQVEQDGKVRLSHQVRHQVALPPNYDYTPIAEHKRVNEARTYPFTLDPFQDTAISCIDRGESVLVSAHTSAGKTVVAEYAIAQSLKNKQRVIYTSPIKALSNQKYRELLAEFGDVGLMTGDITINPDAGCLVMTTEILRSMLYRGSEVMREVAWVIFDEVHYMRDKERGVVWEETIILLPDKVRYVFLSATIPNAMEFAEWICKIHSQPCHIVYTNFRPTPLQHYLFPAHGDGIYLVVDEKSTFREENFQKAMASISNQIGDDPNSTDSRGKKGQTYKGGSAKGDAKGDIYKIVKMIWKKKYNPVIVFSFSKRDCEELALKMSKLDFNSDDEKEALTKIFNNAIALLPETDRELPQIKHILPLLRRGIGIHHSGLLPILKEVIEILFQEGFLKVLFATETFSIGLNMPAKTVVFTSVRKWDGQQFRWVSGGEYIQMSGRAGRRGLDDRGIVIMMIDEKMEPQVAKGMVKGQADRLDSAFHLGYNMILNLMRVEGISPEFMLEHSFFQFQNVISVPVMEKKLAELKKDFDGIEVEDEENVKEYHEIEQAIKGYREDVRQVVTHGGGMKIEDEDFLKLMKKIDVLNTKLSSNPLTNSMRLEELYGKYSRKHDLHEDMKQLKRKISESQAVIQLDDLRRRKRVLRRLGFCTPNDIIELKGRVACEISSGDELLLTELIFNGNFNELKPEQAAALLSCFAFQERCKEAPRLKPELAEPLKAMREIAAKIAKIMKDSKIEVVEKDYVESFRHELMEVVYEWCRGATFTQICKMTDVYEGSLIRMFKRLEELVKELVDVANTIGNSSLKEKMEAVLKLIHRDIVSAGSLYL

T2: Mtr4WT (Saccharomyces cerevisiae, UniProt P47047 1-1073)
T2 sequence: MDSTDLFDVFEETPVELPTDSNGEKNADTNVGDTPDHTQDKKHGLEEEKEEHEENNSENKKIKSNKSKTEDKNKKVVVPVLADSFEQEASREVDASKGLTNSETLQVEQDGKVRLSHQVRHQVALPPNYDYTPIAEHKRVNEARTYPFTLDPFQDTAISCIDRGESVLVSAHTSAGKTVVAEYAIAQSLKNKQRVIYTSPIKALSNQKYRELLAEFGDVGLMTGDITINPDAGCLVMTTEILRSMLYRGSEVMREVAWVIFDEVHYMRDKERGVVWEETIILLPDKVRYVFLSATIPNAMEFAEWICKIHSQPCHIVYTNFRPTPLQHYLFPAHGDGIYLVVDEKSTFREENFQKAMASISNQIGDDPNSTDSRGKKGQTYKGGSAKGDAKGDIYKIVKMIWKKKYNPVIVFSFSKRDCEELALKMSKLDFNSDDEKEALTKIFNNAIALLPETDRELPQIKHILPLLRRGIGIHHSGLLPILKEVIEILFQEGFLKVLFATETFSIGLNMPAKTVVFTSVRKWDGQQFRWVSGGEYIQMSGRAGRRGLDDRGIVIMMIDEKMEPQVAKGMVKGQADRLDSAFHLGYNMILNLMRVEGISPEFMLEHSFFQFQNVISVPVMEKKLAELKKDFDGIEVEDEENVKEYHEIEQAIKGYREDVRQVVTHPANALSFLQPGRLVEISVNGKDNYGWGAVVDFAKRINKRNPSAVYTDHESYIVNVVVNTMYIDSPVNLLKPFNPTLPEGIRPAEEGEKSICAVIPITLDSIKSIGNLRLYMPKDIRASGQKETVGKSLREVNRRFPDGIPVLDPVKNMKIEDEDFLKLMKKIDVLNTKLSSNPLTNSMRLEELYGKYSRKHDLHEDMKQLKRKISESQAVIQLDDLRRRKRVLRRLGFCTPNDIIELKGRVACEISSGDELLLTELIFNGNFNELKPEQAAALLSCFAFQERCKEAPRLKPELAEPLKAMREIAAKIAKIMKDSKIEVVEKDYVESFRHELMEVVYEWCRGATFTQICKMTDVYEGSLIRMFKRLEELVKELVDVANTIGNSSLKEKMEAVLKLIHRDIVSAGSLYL

B1: tRNAiMet (structured_RNA)
RNA: GGGGUUCACUGCCGUAUAGGCAGAGCGCCGUGGCGCAGUGGAAGCGCGCAGGGCUCAUAACCCUGAUGUCCUCGGAUCGAAACCGAGCGGCGCCAAAAAAAAACGC
modifications: none (hypomodified, in vitro transcript)
B2: dsRNA32 (dsRNA)
RNA 1: GCAGGAGCCUAGCUGAAAGAUGUCCUCGGAUCGACGCGUCUUUACGGUGCUUAAAAA
RNA 2: AGCACCGUAAAGACGC
B3: dsRNA16 (dsRNA)
RNA 1: GCGUCUUUACGGUGCUUAAAAA
RNA 2: AGCACCGUAAAGACGC

How the values were obtained:
[1] = target: T1, Mtr4ΔF (fist-less); experiment: HDX-MS
[2] = target: T2, Mtr4WT; experiment: EMSA
[3] = target: T1, Mtr4ΔF (fist-less); experiment: EMSA

Binder	binding result [1]	Kd [2]	Kd [3]
B1	binds	270 ± 20 nM	–
B2	binds	570 ± 30 nM	–
GCGUCUUUACGGUGCUUAAAACAAAACAAAACAAAACAAAAA (ssRNA) [ssRNA42]	binds	420 ± 40 nM	–
B3	–	1140 ± 80 nM	1420 ± 220 nM
